Broadly, the Kd is the equilibrium constant for the complex coming apart. A lower Kd goes with a tighter complex.

B1: His6-N-WASp (natural protein, human, UniProt O00401 1-505, looked up)
chain: MSSVQQQPPPPRRVTNVGSLLLTPQENESLFTFLGKKCVTMSSAVVQLYAADRNCMWSKKCSGVACLVKDNPQRSYFLRIFDIKDGKLLWEQELYNNFVYNSPRGYFHTFAGDTCQVALNFANEEEAKKFRKAVTDLLGRRQRKSEKRRDPPNGPNLPMATVDIKNPEITTNRFYGPQVNNISHTKEKKKGKAKKKRLTKADIGTPSNFQHIGHVGWDPNTGFDLNNLDPELKNLFDMCGISEAQLKDRETSKVIYDFIEKTGGVEAVKNELRRQAPPPPPPSRGGPPPPPPPPHNSGPPPPPARGRGAPPPPPSRAPTAAPPPPPPSRPSVAVPPPPPNRMYPPPPPALPSSAPSGPPPPPPSVLGVGPVAPPPPPPPPPPPGPPPPPGLPSDGDHQVPTTAGNKAALLDQIREGAQLKKVEQNSRPVSCSGRDALLDQIRQGIQLKSVADGQESTPPTPAPTSGIVGALMEVMQKRSKAIHSSDEDEDEDDEEDFEDDDEWED
B2: GST-Arg-SH3SH2 (domain or fragment, mouse, UniProt Q4JIM5 107-263, looked up)
chain: SDPNLFVALYDFVASGDNTLSITKGEKLRVLGYNQNGEWSEVRSKNGQGWVPSNYITPVNSLEKHSWYHGPVSRSAAEYLLSSLINGSFLVRESESSPGQLSISLRYEGRVYHYRINTTTDSKVYVTAESRFSTLAELVHHHSTVADGLVTTLHYPA
B3: GST-Arg-SH3 (domain or fragment, mouse, UniProt Q4JIM5 107-167, looked up)
chain: SDPNLFVALYDFVASGDNTLSITKGEKLRVLGYNQNGEWSEVRSKNGQGWVPSNYITPVNS

Holding throughout (experiment): pull-down
In test [1] the target is full-length Arg (His6-Arg) (mouse, UniProt Q4JIM5 1-1182).
Sequence of full-length Arg (His6-Arg) (Q4JIM5 whole entry): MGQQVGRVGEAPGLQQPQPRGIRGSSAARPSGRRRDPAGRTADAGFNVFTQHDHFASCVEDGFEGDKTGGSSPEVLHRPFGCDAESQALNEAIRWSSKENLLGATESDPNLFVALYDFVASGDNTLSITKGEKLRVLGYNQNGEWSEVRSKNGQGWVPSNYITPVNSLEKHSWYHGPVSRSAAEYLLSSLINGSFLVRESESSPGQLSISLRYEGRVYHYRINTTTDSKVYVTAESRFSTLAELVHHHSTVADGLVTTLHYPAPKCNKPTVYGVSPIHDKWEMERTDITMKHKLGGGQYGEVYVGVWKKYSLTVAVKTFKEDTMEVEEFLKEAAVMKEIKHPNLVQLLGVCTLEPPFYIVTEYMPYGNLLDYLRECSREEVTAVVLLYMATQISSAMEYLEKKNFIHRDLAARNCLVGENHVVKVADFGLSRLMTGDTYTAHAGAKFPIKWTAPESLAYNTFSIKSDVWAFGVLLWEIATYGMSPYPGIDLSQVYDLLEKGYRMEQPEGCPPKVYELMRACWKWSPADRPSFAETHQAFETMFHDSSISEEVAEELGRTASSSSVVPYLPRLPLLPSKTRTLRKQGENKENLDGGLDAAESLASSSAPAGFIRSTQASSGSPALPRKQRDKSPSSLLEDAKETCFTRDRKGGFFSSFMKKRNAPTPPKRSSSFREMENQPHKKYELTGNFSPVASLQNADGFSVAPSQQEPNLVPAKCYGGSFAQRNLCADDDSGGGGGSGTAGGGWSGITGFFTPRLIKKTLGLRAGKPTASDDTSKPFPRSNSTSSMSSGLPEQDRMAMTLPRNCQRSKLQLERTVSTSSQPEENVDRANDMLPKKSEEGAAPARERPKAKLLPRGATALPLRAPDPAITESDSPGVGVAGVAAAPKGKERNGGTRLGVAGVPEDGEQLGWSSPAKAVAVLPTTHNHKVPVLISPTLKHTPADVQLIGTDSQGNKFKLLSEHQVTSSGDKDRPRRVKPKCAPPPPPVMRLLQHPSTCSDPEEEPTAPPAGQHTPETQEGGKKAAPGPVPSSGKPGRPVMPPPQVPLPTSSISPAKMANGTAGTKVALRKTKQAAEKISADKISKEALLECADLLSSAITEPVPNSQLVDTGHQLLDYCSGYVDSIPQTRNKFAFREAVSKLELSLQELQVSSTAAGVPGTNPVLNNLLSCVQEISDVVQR
In the test “His6-N-WASp” the target is B1.
Test [2] has as its target Phosphorylated N-WASp (pN-WASp) (human, UniProt O00401 1-505, tyrosine phosphorylated by co-expressed Arg; Y256 is the primary site).

In turn, B1 displayed a Kd in test [1] of no less than 3800 nM. Regarding B2, the values for the dissociation constant Kd (with His6-N-WASp; in test [2]) were no less than 3700 nM and 1700 ± 100 nM, respectively. For the molecule B3, binding with His6-N-WASp was characterised by a dissociation constant (Kd) of 1400 ± 200 nM.
